Data on twelve molecules can be found in patent publication US20240101645A1 (HENRY M JACKSON FOUNDATION FOR THE ADVANCEMENT OF MILITARY …, published 2024).

For test [1], the target named is T1, HCoV-OC43 spike antigens (bead panel) (HCoV-OC43, UniProt P36334 14-1297).
T1 sequence: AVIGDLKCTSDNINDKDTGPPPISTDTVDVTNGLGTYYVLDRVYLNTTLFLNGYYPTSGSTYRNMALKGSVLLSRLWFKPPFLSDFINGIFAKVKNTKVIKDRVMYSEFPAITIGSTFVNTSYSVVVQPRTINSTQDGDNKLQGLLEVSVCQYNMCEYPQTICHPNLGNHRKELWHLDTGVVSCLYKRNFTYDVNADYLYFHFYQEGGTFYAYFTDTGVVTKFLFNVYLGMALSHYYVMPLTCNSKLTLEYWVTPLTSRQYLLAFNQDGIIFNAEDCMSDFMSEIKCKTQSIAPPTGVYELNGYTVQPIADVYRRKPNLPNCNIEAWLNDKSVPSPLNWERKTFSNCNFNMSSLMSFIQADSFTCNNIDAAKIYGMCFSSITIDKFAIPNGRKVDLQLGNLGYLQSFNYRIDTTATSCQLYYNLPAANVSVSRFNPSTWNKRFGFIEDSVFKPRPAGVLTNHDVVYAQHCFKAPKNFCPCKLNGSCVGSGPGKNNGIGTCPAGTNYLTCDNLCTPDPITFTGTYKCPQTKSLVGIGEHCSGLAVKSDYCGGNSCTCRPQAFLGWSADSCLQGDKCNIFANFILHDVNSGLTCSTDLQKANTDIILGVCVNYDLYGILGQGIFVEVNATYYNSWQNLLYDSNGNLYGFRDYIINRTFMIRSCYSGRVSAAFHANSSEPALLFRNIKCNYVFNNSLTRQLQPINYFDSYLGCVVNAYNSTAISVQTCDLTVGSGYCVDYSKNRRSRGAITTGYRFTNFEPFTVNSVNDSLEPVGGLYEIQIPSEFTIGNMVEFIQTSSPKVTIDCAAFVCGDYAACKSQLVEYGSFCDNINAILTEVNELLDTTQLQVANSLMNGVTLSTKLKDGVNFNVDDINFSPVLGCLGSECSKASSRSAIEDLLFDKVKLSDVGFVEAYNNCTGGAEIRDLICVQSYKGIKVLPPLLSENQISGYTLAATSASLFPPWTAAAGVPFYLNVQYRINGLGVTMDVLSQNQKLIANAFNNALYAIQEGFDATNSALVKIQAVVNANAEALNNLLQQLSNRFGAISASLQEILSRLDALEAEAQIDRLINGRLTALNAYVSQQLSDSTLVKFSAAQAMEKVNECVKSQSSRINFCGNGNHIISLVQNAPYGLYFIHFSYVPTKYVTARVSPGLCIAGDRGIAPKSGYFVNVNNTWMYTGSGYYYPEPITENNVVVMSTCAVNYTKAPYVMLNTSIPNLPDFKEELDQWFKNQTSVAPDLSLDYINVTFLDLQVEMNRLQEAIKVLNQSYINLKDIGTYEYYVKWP
As to the kind of experiment: multiplex bead assay.

Test [2] has as its target T2, HCoV-HKU1 spike antigens (bead panel) (HCoV-HKU1, UniProt Q5MQD0 13-1300).
T2 sequence: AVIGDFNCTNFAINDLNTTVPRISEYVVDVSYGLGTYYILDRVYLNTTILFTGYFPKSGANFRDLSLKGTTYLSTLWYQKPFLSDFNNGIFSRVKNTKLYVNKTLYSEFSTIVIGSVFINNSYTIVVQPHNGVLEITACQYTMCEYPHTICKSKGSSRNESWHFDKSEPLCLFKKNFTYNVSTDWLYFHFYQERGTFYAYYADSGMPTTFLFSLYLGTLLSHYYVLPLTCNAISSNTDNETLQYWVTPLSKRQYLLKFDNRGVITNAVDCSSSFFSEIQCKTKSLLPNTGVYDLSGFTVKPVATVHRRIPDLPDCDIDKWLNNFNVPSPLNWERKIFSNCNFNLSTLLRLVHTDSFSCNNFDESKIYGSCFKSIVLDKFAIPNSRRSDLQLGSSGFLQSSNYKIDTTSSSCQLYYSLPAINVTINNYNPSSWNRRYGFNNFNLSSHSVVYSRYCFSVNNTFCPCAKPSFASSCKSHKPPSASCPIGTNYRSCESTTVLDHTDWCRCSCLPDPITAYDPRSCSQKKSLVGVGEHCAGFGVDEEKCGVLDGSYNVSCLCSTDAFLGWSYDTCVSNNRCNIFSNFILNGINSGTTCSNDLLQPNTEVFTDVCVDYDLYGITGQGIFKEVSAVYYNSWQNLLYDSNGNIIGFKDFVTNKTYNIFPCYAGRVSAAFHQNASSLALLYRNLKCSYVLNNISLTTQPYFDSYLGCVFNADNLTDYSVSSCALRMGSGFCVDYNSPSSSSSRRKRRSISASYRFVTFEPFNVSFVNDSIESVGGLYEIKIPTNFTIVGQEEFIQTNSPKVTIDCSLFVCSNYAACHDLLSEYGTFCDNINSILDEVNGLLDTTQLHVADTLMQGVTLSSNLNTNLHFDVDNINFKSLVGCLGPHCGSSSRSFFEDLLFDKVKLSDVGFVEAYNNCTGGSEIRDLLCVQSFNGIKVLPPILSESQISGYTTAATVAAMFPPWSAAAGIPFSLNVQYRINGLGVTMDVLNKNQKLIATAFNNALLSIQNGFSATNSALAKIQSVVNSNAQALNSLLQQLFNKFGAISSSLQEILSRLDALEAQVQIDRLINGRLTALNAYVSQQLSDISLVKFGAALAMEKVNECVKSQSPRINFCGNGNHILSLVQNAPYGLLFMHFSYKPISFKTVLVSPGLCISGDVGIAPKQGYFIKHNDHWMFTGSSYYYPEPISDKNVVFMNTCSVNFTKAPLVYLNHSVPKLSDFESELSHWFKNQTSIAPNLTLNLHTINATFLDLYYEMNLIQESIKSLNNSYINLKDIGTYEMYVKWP
Briefly: multiplex bead assay.

B1: COV_1144 (antibody, V domains shown)
VH: EVQLVESGGGLVQPGGSLRLSCAASGFTFRSFWMSWVRQAPGKGLEWVANIKEDASEKHYVDPVKGRFTISRDNAKNSLYLQLNSLRAEDMAVYYCARVGRGYCTNGLCYTAFEYWGQGTLVTVSS
VL: DIQMTQSPSSLSASVGDRVTITCRTSQSISNYLNWYQQKPGKAPKLLIYAASSLQSGVPSRFSGSGSGTDFTLTISSLQPEDFATYYCQQSYSTAWTFGQGTKVEIRR
notes: human IgG1
Turning to B1, the binding result in test [1] and in test [2] was “no binding” in each case.

B2: COV_2035 (antibody, V domains shown)
VH: QVQLVQSGAEVKKPGASVKVSCKVSGYTLPELSIHWVRQAPGKGLEWLGGFDPEDGKIIYAQKFQGRVTMTEDTSTDTAYMELSSLRSEDTAVYYCATSPAVVERGWFDPWGQGTLVTVSS
VL: QSALTQPPSASGSPGQSVTISCTGTSSDVGGYNYVSWYQQHPGKAPKLMIYEVSKRPSGVPDRFSGSKSGNMASLTVSGLQAEDEANYYCSSYAGSKRVFGGGTKLTVL
notes: human IgG1
Regarding B2, the binding result in test [1] is “no binding”.

B3: COV_1166 (antibody, V domains shown)
VH: EVQLVESGGGLVQPGGSLRLSCAVSGFTFRSFWMSWVRQTPGKGLEWVANIKEDGSEKYYVDSVKGRFTISRDNAKNSLYLQMNSLRAEDTAVYYCAREGRWELLGFAFDIWGQGTMVTVSS
VL: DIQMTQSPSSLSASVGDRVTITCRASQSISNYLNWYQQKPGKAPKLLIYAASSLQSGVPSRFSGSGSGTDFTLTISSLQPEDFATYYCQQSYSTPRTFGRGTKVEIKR
notes: human IgG1
Turning to B3, the binding result in test [1] and in test [2] was “no binding” in each case.

B4: COV_1170 (antibody, V domains shown)
VH: QVQLVESGGGVVQPGRSLRLSCAASGFTFSTYAMHWVRQAPGKGLEWVALISYDGSNKYYADSVKGRFTISRDNSKNTLDLQMNSLRAEDTAVYYCARSLGGYRTGFDYWGQGTLVTVSS
VL: DIQLTQSPSFLSASVGDRVTITCRASQGISSYLAWYQQKPGKAPKLLIYAASTLQSGVPSRFSGSGSGTEFTLTISSLQPEDFATYYCQQLNSYPPFTFGPGTKVDIKR
notes: human IgG1
B4: the binding result in test [1] and in test [2] was “no binding” in each case.

B5: COV_1151 (antibody, V domains shown)
VH: QVQVQQWGAGLLKPSETLSLTCAVYGGSFNNYYWSWIRQPPGKGLEWIGEINHSGSTNYNPSLMSRVTISVDTSKNQFSLKLTSVTAADTAVYFCARGLPVTTFFSSYYGMDVWGQGTTVTVSS
VL: EIVLTQSPGTLSLSPGERATLSCRASQSVSRTYLAWYQQKPGQAPRLLIYGASSRATGIPDRFSGSGSGTDFTLTISRLEPEDFAVYYCQHYGSSPWTFGQGTKVEIRR
notes: human IgG1
As for B5, the binding result in test [1] and in test [2] was “no binding” each time.

B6: COV_2048 (antibody, V domains shown)
VH: QVQLQESGPGLVKPSETLSLTCTVSGGSISNTSYYWGWIRQPPGKGLEWIGSIYRSGSTYYNPSLKSRVTISIDTSKNQFTLKLSSVTAADTAVYYCARDYYGDYSAKPMEYWGQGTLVTVSS
VL: QSALTQPRSVSGSPGQSVTISCTGTSSDVGGYNYVSWYQQHPGKAPKLLIYDVSKRPSGVPDRFSGSKSGNTASLTISGLQAEDEADYYCCSYAGSYVVFGGGAKLTVLG
notes: human IgG1
In the case of B6, the binding result in test [1] and in test [2] was “no binding” each time.

B7: COV_1172 (antibody, V domains shown)
VH: QVQLQESGPGLVKPSETLSLTCTVSGGSIRSYYWSWIRQPPGKGLEWIGYIYYSGSTNYSPSLKSRVTISVDTSKNQFSLKLNSVTAADTAVYYCARRGLGYCSGDSCSNAFDIWGQGTMVTVSS
VL: DIQMTQSPSSLSASVGDRVTITCRASQSISSYLNWYQQKPGRAPELLIYDASSLQSGVPSGFSGSGSGTDFTLTISSLQPEDFATYYCQQSYSTPFTFGPGTKVDIKR
notes: human IgG1
As to B7, the binding result in test [1] and in test [2] was “no binding” in each case.

B8: COV_2008 (antibody, V domains shown)
VH: QVRVVQSGAEVKNPGASVKVSCKVSGYTLTELSIHWVRQAPGNGLEWMGGFDPEDGETIYAQKFQGRVTMTEDTSTDTAYMELSSLRSDDTAVYYCATAGAITGTPRNFYYYYGMDVWGQGTTVTVSS
VL: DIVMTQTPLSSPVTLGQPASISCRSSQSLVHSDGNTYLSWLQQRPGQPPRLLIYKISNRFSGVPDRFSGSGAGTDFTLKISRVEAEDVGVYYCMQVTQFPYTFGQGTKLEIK
notes: human IgG1
As to B8, the binding result in test [1] and in test [2] was “no binding” throughout.

B9: COV_2056 (SEQ ID NO:792/797) (antibody, V domains shown)
VH: EVQLVESGGGVVQPGRSLRLSCAASGFTFSIYGMHWVRQAPGKGLEWVALISYDGTNKYYADSVKGRFSISRDDSKNTLYLQMNSLRPEDTAVYYCAKVLMMGDSSGFSLGDAFDIWGQGTMVTVSS
VL: DIQMTQSPSSVSASVGDRVTITCRASQGISNWLAWYQQKPGKAPKLLIYAASSLQSGVPSRFSGSVSGTDFTLTISSLQPEDFATYYCQQANSFPLTFGGGTKVDIKR
Consider B9, for which the binding result in test [1] and in test [2] was “no binding” each time.

B10: COV_2004 (antibody, V domains shown)
VH: QVQLVQSGAEVKKPGASVKVSCKASGYTFTGYYMHWVRQAPGQGLEWMGRINPSSGGTNYAQKFQGRVTMTRDTSISTAYMELSSLRSDDTAVYYCATDGDDGENWFDPWGQGTLVIVSS
VL: DIQMTQSPSSLSASVGDRVTITCRASQGISSWLAWYQQKPEKAPKSLIYAASSLQSGVPSRFSGSGSGTDFTLTISSLQPEDFATYYCQQYNSYPYTFGQGTKLEIK
notes: human IgG1
Consider B10, for which the binding result in test [2] is on record as “no binding”.

B11: COV_1201 (antibody, V domains shown)
VH: QVQLVQSGAEVKKPGASMKVSCKASGYTFTGYYIHWVRQAPGQGLEWMGRINPNSGGTNYAQKFQGRVTMTRDTSISTAYMELSRLRSDDTAVYYCAREYYYVPYGMDVWGQGTTVTVSS
VL: QSALTQPASVSGSPGQSITISCTGTSSDVGGYNFVSWYQHHPGKAPKLMIYEVSNRPSGVSNRFSGSKSGNTASLTISGLQAEDEADYYCSSYTSSSTYVFGTGTKVTVL
notes: human IgG1
For B11, the binding result in test [1] and in test [2] was “no binding” throughout.

B12: COV_1149 (antibody, V domains shown)
VH: QVQLVESGGGVVQPGRSLRLSCAASGFTFSSYGMHWVRQAPGKGLEWVAVISYDGSNKYYADSVKGRFTISRDNSKNTLYLQMNSLRAEDTAVYYCAKTGGGYSYGLGNVWGQGTLVTVSS
VL: QSALTQPASVSGSPGQSITISCTGTSSDVGGYNYVSWYQQHPGKAPKLMIYDVSNRPSGVSNRFSGSKSGNTASLTISGLQAEDEADYYCSSYTSSSTLVVFGGGTKLTVLG
notes: human IgG1
For B12, the binding result in test [1] and in test [2] was “no binding” throughout.
